Test results published in paper PMC9520036, “The heme-regulated inhibitor kinase requires dimerization for heme-sensing activity” (The Journal of Biological Chemistry, 2022).

B1: HRI-ΔN-ΔpCC (Δ1-143, Δ620-630), untreated (phosphorylated as purified) (domain or fragment, human, UniProt Q9BQI3 144-619, looked up)
chain: SRIQKIRSREVALEAQTSRYLNEFEELAILGKGGYGRVYKVRNKLDGQYYAIKKILIKGATKTVCMKVLREVKVLAGLQHPNIVGYHTAWIEHVHVIQPRADRAAIELPSLEVLSDQEEDREQCGVKNDESSSSSIIFAEPTPEKEKRFGESDTENQNNKSVKYTTNLVIRESGELESTLELQENGLAGLSASSIVEQQLPLRRNSHLEESFTSTEESSEENVNFLGQTEAQYHLMLHIQMQLCELSLWDWIVERNKRGREYVDESACPYVMANVATKIFQELVEGVFYIHNMGIVHRDLKPRNIFLHGPDQQVKIGDFGLACTDILQKNTDWTNRNGKRTPTHTSRVGTCLYASPEQLEGSEYDAKSDMYSLGVVLLELFQPFGTEMERAEVLTGLRTGQLPESLRKRCPVQAKYIQHLTRRNSSQRPSAIQLLQSELFQNSGNVNLTLQMKIIEQEKEIAELKKQLNLLSQDKG
modifications: autophosphorylated as purified from E. coli (sites not given)
notes: The limits 144-619 follow from the printed deletions Δ1-143 and Δ620-630; also called His-HRI-ΔN-ΔpCC; untreated HRI-ΔN-ΔpCC
B2: HRI-ΔN-ΔpCC (Δ1-143, Δ620-630), dephosphorylated with lambda phosphatase (domain or fragment, human, UniProt Q9BQI3 144-619, looked up)
chain: B1 chain
notes: Human HRI, UniProt Q9BQI3, residues 144-619 (Δ1-143, Δ620-630); phosphate groups removed with lambda phosphatase; The limits 144-619 follow from the printed deletions Δ1-143 and Δ620-630; also called dephosphorylated HRI-ΔN-ΔpCC; source: E. coli BL21-Rosetta(DE3), purified, incubated with lambda phosphatase, then Superdex 200

Experiments:
[1] = target: T1, heme-regulated inhibitor (HRI) (Homo sapiens, UniProt Q9BQI3); experiment: γ[…] ATP filter-paper kinase assay with eIF2α peptide; supported by DSF (~[…] °C shift) and DSC stabilization; format: biochemical
T1 construct: gene EIF2AK1; HRI-FL (full-length)
T1 sequence (Q9BQI3 whole entry): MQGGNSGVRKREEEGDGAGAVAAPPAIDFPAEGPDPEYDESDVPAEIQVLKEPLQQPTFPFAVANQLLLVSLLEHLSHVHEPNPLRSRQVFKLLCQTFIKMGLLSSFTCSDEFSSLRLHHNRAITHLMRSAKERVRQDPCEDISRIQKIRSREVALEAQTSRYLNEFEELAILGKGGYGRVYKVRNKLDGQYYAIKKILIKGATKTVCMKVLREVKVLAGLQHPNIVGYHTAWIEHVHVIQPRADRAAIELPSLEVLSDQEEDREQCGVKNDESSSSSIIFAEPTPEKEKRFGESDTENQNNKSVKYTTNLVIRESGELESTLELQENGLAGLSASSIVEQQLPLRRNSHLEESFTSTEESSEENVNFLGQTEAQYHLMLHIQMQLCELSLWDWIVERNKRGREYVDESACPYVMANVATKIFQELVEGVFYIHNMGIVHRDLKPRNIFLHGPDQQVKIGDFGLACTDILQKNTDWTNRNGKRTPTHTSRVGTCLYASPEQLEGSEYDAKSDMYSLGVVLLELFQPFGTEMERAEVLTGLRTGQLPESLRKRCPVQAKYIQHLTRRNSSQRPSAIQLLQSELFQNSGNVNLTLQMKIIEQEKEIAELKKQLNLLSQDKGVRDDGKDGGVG

[2] = target: the molecule itself; experiment: AUC; sedimentation velocity; samples at an absorbance of 0.5 at 280 nm, 20 °C, 42,000 rpm, c(s) distribution model in SEDFIT; self-association (oligomeric state from fit MW)

Molecule	IC50 [1]	stoichiometry N [2]
O=c1c(O)c(-c2ccc(O)c(O)c2)oc2cc(O)cc(O)c12 [quercetin]	1520 nM	
B1		2
B2		2
